Experiments:
[1] = molecular target: T1, hnRNP-K (heterogeneous nuclear ribonucleoprotein K) (human (endogenous protein of the human …, UniProt P61978 1-463, limits assumed)); assay: streptavidin affinity precipitation from HT1080 lysate, stringent wash, western blot with anti-hnRNP-K antibody
T1 construct: Endogenous intracellular protein

[2] = molecular target: T2, ビメンチン(vimentin) (human (endogenous protein of the human …, UniProt P08670 2-466)); assay: streptavidin affinity precipitation from HT1080 lysate, stringent wash, western blot with anti-vimentin antibody
T2 construct: Endogenous intracellular protein
T2 sequence (P08670 2-466 limits assumed): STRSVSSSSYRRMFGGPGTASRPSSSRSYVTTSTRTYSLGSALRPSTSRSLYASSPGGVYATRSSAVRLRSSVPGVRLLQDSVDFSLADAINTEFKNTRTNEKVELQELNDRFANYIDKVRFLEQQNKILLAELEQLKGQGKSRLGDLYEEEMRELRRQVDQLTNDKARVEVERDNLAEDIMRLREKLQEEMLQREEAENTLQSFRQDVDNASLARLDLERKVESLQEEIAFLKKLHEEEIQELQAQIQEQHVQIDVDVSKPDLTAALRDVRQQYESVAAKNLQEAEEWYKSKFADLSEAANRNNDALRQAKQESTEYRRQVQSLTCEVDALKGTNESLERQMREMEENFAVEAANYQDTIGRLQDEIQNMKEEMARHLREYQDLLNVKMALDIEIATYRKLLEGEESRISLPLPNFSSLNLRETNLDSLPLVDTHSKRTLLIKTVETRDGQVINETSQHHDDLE

binding result [1]: no binding | binding result [2]: no binding
B1: VHH-Sfi-SBT (VHH, not shown: large carriers)
VHH: DVQLQASGGGSVQAGGSLRLSCAASGYTIGPYCMGWFRQAPGKEREGVAAINMGGGITYYADSVKGRFTISQDNAKNTVYLLMNSLEPEDTAIYYCAADSAIYASYYECGHGLSTGGYGYGPWGQGTQVTVSS
